Like-named read-outs stand apart in the source and are kept apart here.
Columns and labels:
Assay in all cases: SEC-MALS
[1] = target: His6-QatC (co-expressed with QatB) (Escherichia coli NCTC9009)
[2] = target: His6-QatC (co-expressed with QatB) (Escherichia coli NCTC9009); remark: listed apart in the source
[3] = target: QatB (untagged, co-expressed with His6-QatC) (Escherichia coli NCTC9009)

Substance	stoichiometry N [1]	stoichiometry N [2]	stoichiometry N [3]
QatB (untagged, co-expressed with His6-QatC) (natural protein)	1	1	
QatD (untagged, co-expressed) (enzyme)			1
